Source: PMC4250520, “Calcium-induced conformational changes of the regulatory domain of human mitochondrial aspartate/glutamate carriers” (Nature Communications, 2014)
Values belong to the binder of their own block, whether it stands above or below them.

Legend:
[1] = biological target: the molecule itself; assay: SEC-MALLS; Superdex 200 10/300 GL; 20 mM Hepes pH 7.5, 150 mM NaCl, 5 mM CaCl2; two-detector method
[2] = biological target: the molecule itself; assay: SEC-MALLS; Superose 6 10/300 GL; 20 mM Hepes pH 8.0, 150 mM NaCl, 0.002% (w/v) LMNG, 0.004 mg/ml TOCL; protein-conjugate (three-detector) method
[3] = biological target: T1, N-terminal domain of citrin (human, UniProt Q9UJS0 2-319); assay: SEC; fusion cleaved with MBP-TEV overnight, then Superose 12 10/30 HR; 20 mM Hepes pH 7.5, 150 mM NaCl, 10 mM EGTA (sample E, supplemented with 10 mM EGTA and 10 mM EDTA); peak fractions on Tris-tricine gels; details: both partners purified
T1 construct: human citrin N-terminal domain, residues 2-319; In the crystal structure it is joined to the C-terminal domain on one chain; The N-terminal domain of citrin could not be expressed on its own; also called EF-hands 1-8; source: Lactococcus lactis NZ9000, as part of the purified fusion; set free by cleavage with MBP-TEV
T1 sequence (looked up): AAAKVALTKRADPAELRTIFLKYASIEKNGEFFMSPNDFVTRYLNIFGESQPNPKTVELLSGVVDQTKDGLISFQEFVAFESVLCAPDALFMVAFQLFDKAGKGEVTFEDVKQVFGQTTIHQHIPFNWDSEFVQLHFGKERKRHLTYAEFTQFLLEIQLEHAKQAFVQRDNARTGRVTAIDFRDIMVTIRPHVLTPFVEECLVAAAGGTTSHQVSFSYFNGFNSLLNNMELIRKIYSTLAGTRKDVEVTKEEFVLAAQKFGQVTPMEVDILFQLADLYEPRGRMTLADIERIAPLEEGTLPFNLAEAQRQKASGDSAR

B1: N-terminal domain of aralar (domain or fragment, human, UniProt O75746 2-311, looked up)
chain: AVKVQTTKRGDPHELRNIFLQYASTEVDGERYMTPEDFVQRYLGLYNDPNSNPKIVQLLAGVADQTKDGLISYQEFLAFESVLCAPDSMFIVAFQLFDKSGNGEVTFENVKEIFGQTIIHHHIPFNWDCEFIRLHFGHNRKKHLNYTEFTQFLQELQLEHARQAFALKDKSKSGMISGLDFSDIMVTIRSHMLTPFVEENLVSAAGGSISHQVSFSYFNAFNSLLNNMELVRKIYSTLAGTRKDVEVTKEEFAQSAIRYGQVTPLEIDILYQLADLYNASGRLTLADIERIAPLAEGALPYNLAELQRQQ
notes: human aralar N-terminal domain, residues 2-311; Tag removed with Factor Xa; also called aralar N-terminal domain; regulatory domain of aralar; source: Lactococcus lactis NZ9000, purified (Nickel Sepharose, Factor Xa, SEC); not shown: His8, N-terminal, cleaved
- stoichiometry N [1]: 2

B2: citrin (mitochondrial aspartate/glutamate carrier isoform 2), full-length (natural protein, human, UniProt Q9UJS0 1-675, looked up)
chain: MAAAKVALTKRADPAELRTIFLKYASIEKNGEFFMSPNDFVTRYLNIFGESQPNPKTVELLSGVVDQTKDGLISFQEFVAFESVLCAPDALFMVAFQLFDKAGKGEVTFEDVKQVFGQTTIHQHIPFNWDSEFVQLHFGKERKRHLTYAEFTQFLLEIQLEHAKQAFVQRDNARTGRVTAIDFRDIMVTIRPHVLTPFVEECLVAAAGGTTSHQVSFSYFNGFNSLLNNMELIRKIYSTLAGTRKDVEVTKEEFVLAAQKFGQVTPMEVDILFQLADLYEPRGRMTLADIERIAPLEEGTLPFNLAEAQRQKASGDSARPVLLQVAESAYRFGLGSVAGAVGATAVYPIDLVKTRMQNQRSTGSFVGELMYKNSFDCFKKVLRYEGFFGLYRGLLPQLLGVAPEKAIKLTVNDFVRDKFMHKDGSVPLAAEILAGGCAGGSQVIFTNPLEIVKIRLQVAGEITTGPRVSALSVVRDLGFFGIYKGAKACFLRDIPFSAIYFPCYAHVKASFANEDGQVSPGSLLLAGAIAGMPAASLVTPADVIKTRLQVAARAGQTTYSGVIDCFRKILREEGPKALWKGAGARVFRSSPQFGVTLLTYELLQRWFYIDFGGVKPMGSEPVPKSRINLPAPNPDHVGGYKLAVATFAGIENKFGLYLPLFKPSVSTSKAIGGGP
notes: also called SLC25A13; AGC2; source: purified in lauryl maltose neopentyl glycol
- stoichiometry N [2]: 2

- binding result [3]: binds
B3: C-terminal domain of citrin (domain or fragment, human, UniProt Q9UJS0 613-675, looked up)
chain: GVKPMGSEPVPKSRINLPAPNPDHVGGYKLAVATFAGIENKFGLYLPLFKPSVSTSKAIGGGP
notes: human citrin C-terminal domain, residues 613-675; residues 632-658 are seen in the structure; In the crystal structure it is joined to the N-terminal domain on one chain; also called C-terminal helix; source: Lactococcus lactis NZ9000, as part of the purified fusion; set free by cleavage with MBP-TEV

B4: N- and C-terminal domain fusion of aralar (domain or fragment, human)
chain: AVKVQTTKRGDPHELRNIFLQYASTEVDGERYMTPEDFVQRYLGLYNDPNSNPKIVQLLAGVADQTKDGLISYQEFLAFESVLCAPDSMFIVAFQLFDKSGNGEVTFENVKEIFGQTIIHHHIPFNWDCEFIRLHFGHNRKKHLNYTEFTQFLQELQLEHARQAFALKDKSKSGMISGLDFSDIMVTIRSHMLTPFVEENLVSAAGGSISHQVSFSYFNAFNSLLNNMELVRKIYSTLAGTRKDVEVTKEEFAQSAIRYGQVTPLEIDILYQLADLYNASGRLTLADIERIAPLAEGALPYNLAELQRQQSPGLGRENLYFQGGLKPAGSEPTPKSRIADLPPANPDHIGGYRLATATFAGIENKFGLYLPKFKSPSVAVVQPKAAVAATQ
notes: human aralar N-terminal domain, residues 2-317; TEV protease cleavage site that links the two domains in place of the carrier domain; human aralar C-terminal domain, residues 611-678; also called aralar fusion; source: gene codon-optimized for expression in L. lactis; expressed, purified
- stoichiometry N [1]: 2

B5: N- and C-terminal domain fusion of citrin (domain or fragment, human)
chain: AAAKVALTKRADPAELRTIFLKYASIEKNGEFFMSPNDFVTRYLNIFGESQPNPKTVELLSGVVDQTKDGLISFQEFVAFESVLCAPDALFMVAFQLFDKAGKGEVTFEDVKQVFGQTTIHQHIPFNWDSEFVQLHFGKERKRHLTYAEFTQFLLEIQLEHAKQAFVQRDNARTGRVTAIDFRDIMVTIRPHVLTPFVEECLVAAAGGTTSHQVSFSYFNGFNSLLNNMELIRKIYSTLAGTRKDVEVTKEEFVLAAQKFGQVTPMEVDILFQLADLYEPRGRMTLADIERIAPLEEGTLPFNLAEAQRQKASGDSARENLYFQGGVKPMGSEPVPKSRINLPAPNPDHVGGYKLAVATFAGIENKFGLYLPLFKPSVSTSKAIGGGP
notes: human citrin N-terminal domain, residues 2-319; TEV protease cleavage site that links the two domains in place of the carrier domain; human citrin C-terminal domain, residues 613-675; A Factor-Xa cleavage site follows the octa-histidine tag; no tag removal step is described in the purification of this fusion; also called citrin N- and C-terminal fusion protein; regulatory domain of citrin; …
- stoichiometry N [1]: 2
